Measured values published in paper PMC4365668, “The zinc finger proteins ZNF644 and WIZ regulate the G9a/GLP complex for gene repression”.

Legend:
Assay in all cases: EMSA; 20 mM HEPES-KOH pH 7.9, 20% glycerol, 0.2 mM EDTA, 0.1 M KCl, 0.5 mM PMSF, 1 mM DTT, 5 mM MgCl2, 1.25 ug/ul BSA, 0.2 nM DNA, 2 h at 4 C; 7.5% PAGE in TBE
Settings in all cases: protein: recombinant; tags: GST; label: 5'-32P; blunt
[1] = molecular target: GST-WIZ (human, UniProt O95785 1-1651)
[2] = molecular target: T1, GST-WIZN200 (human, UniProt O95785 1-200)
T1 sequence: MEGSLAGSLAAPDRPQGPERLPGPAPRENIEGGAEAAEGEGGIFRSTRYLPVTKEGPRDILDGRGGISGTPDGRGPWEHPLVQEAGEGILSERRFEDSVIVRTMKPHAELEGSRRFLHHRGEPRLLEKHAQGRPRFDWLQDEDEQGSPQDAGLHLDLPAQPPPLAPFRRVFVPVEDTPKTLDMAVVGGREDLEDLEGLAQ

[3] = molecular target: T2, GST-ZNF644 (human, UniProt Q9H582 1-1327)
T2 sequence: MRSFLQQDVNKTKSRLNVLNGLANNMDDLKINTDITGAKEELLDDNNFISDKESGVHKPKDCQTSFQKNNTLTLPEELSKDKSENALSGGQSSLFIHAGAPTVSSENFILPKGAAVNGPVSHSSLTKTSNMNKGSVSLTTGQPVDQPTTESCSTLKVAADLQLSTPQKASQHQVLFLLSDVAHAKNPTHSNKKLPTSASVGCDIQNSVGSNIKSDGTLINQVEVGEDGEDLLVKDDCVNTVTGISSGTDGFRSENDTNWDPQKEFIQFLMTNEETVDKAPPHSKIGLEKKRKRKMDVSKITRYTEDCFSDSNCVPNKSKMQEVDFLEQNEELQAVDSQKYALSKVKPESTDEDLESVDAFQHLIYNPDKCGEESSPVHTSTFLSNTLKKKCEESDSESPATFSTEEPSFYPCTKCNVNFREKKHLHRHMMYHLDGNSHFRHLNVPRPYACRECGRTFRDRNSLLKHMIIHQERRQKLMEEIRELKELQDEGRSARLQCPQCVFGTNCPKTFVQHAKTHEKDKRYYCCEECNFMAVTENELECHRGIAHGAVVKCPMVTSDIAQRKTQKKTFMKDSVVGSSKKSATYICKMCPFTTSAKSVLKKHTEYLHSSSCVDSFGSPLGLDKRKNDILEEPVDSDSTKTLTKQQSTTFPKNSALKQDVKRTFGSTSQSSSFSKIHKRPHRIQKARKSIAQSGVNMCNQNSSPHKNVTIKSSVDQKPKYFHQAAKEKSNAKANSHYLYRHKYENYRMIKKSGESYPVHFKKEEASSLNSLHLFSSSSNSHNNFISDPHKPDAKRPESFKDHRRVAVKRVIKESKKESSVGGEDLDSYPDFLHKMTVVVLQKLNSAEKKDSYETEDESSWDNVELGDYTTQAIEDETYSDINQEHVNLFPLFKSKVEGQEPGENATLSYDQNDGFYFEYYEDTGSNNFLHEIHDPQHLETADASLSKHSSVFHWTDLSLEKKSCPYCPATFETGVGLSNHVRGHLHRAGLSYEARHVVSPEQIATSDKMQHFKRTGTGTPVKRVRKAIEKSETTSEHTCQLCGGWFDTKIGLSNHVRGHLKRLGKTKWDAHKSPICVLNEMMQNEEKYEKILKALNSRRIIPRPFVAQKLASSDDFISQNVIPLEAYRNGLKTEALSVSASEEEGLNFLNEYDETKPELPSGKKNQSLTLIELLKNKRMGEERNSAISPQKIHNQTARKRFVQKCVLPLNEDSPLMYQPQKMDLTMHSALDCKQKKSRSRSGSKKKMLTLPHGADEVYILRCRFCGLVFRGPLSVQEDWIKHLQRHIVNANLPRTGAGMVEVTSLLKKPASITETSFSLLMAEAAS

[4] = molecular target: T3, GST-ZNF644N300 (human, UniProt Q9H582 1-300)
T3 sequence: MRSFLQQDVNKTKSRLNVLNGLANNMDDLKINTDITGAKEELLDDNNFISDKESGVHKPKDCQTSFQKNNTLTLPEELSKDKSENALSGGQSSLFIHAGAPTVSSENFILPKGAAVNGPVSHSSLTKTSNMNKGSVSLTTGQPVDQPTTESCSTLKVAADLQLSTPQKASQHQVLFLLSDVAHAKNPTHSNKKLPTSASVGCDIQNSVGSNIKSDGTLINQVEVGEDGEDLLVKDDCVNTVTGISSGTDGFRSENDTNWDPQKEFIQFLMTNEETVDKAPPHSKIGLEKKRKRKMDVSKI

Binder	binding result [1]	binding result [2]	binding result [3]	binding result [4]
WIZ WT DNA target (dsDNA) DNA 1: GAGTCTCACTCACGCGCCATTCCATTCCATTCAGATACTAGTACGGTCAG DNA 2: CTGACCGTACTAGTATCTGAATGGAATGGAATGGCGCGTGAGTGAGACTC	binds	no binding		
ZNF644 WT DNA target (dsDNA) DNA 1: GAGTAAGATCATGCCACTGGGAATCATCGAACACAGAGTGAGGCTGGG DNA 2: CCCAGCCTCACTCTGTGTTCGATGATTCCCAGTGGCATGATCTTACTC			binds	no binding
